Substrate in data set [1]: CC(C)=CCC/C(C)=C/CC/C(C)=C/COP(=O)(O)OP(=O)(O)O
As to the kind of experiment: Activity at human GGPPS.

Substrate in data set [2]: CC(C)=CCC/C(C)=C/CC/C(C)=C/COP(=O)(O)OP(=O)(O)O
Kind of data set: Activity at Saccharomyces cerevisiae GGPPS.

B1: Geranylgeranyl pyrophosphate synthase (Homo sapiens), O95749 (protein)
chain: MEKTQETVQRILLEPYKYLLQLPGKQVRTKLSQAFNHWLKVPEDKLQIIIEVTEMLHNASLLIDDIEDNSKLRRGFPVAHSIYGIPSVINSANYVYFLGLEKVLTLDHPDAVKLFTRQLLELHQGQGLDIYWRDNYTCPTEEEYKAMVLQKTGGLFGLAVGLMQLFSDYKEDLKPLLNTLGLFFQIRDDYANLHSKEYSENKSFCEDLTEGKFSFPTIHAIWSRPESTQVQNILRQRTENIDIKKYCVHYLEDVGSFEYTRNTLKELEAKAYKQIDARGGNPELVALVKHLSKMFKEENE
For orientation: Km means the substrate concentration at which the rate is half of its maximum. Regarding B1, in data set [1], the Km turned out to be 0.71 µM.

B2: Geranylgeranyl pyrophosphate synthase BTS1 (Saccharomyces cerevisiae S288c), Q12051 (protein)
chain: MEAKIDELINNDPVWSSQNESLISKPYNHILLKPGKNFRLNLIVQINRVMNLPKDQLAIVSQIVELLHNSSLLIDDIEDNAPLRRGQTTSHLIFGVPSTINTANYMYFRAMQLVSQLTTKEPLYHNLITIFNEELINLHRGQGLDIYWRDFLPEIIPTQEMYLNMVMNKTGGLFRLTLRLMEALSPSSHHGHSLVPFINLLGIIYQIRDDYLNLKDFQMSSEKGFAEDITEGKLSFPIVHALNFTKTKGQTEQHNEILRILLLRTSDKDIKLKLIQILEFDTNSLAYTKNFINQLVNMIKNDNENKYLPDLASHSDTATNLHDELLYIIDHLSEL
Take B2: the Michaelis-Menten constant (Km) in data set [2] is 3.2 µM.

For the origin of these results see ChEMBL document CHEMBL1145505, “Bisphosphonates target multiple sites in both cis- and trans-prenyltransferases” (Proc Natl Acad Sci U S A, 2007).
